Reference: patent publication US20170037110A1 (IMMATICS BIOTECHNOLOGIES, published 2017)

These binders were tested against T1, HLA-A*02:01 (human) (assay: UV peptide exchange ELISA).
T1 construct: monomers captured on streptavidin plates; also called MHC class I
Excerpt: Candidate peptides for T cell based therapies according to the present invention were further tested for their MHC binding capacity (affinity). The individual peptide-MHC complexes were produced by UV-ligand exchange, where a UV-sensitive peptide is cleaved upon UV-irradiation, and exchanged with the peptide of interest as analyzed. Only peptide candidates that can effectively bind and stabilize the peptide-receptive MHC molecules prevent dissociation of the MHC complexes. To determine the yield of the exchange reaction, an ELISA was performed based on the detection of the light chain (p2m) of stabilized MHC complexes.
96 well MAXISorp plates (NUNC) were coated over night with 2 μg/ml streptavidin in PBS at room temperature, washed 4× and blocked for 1 h at 37° C. in 2% BSA containing blocking buffer. […] Peptide-MHC monomers of the UV-exchange reaction were diluted 100 fold in blocking buffer. Samples were incubated for 1h at 37° C., washed four times, incubated with 2 μg/ml HRP conjugated anti-p2m for 1h at 37° C., washed again and detected with TMB solution that is stopped with […]. Absorption was measured at 450 nm.

Row | Binder | peptide exchange yield [%]
1 | TLAEEVVAL | 50 to 75
2 | YVWGFYPAEV | 50 to 75
3 | ILVGGGALATV | 50 to 75
4 | LLQAIKLYL | 20 to 50
5 | SLLEADPFL | 50 to 75
6 | ALVSKGLATV | 20 to 50
7 | YLFESEGLVL | 50 to 75
8 | SLASKLTTL | ≥ 75
9 | ALLGIPLTLV | 50 to 75
10 | FLYIGDIVSL | ≥ 75
11 | SVIPQIQKV | 50 to 75
12 | LIIDQADIYL | 50 to 75
13 | SLINGSFLV | 50 to 75
14 | YLLSTNAQL | ≥ 75
15 | STMEQNFLL | ≥ 75
16 | AIAGAGILYGV | 20 to 50
17 | GLLPTPLFGV | 50 to 75
18 | YIFTDNPAAV | 50 to 75
19 | ILPDGEDFLAV | 50 to 75
20 | KLIDNNINV | 50 to 75
21 | SLVGEPILQNV | 20 to 50
22 | GVVDPRAISVL | 20 to 50
23 | SLMEPPAVLLL | 50 to 75
24 | FLQPVDDTQHL | 50 to 75
25 | LLYDAVHIVSV | 50 to 75
26 | IILSILEQA | ≥ 75
27 | YLIDIKTIAI | 20 to 50
28 | FLSQVDFEL | 50 to 75
29 | YHIDEEVGF | 10 to 20
30 | ALFPGVALLLA | ≥ 75
